Consider one substance from article PMC5074588.

The target of this assay is tubulins (tubulin dimers; paclitaxel-stabilized microtubules). The assay can be described thus: co-sedimentation; different concentrations of the protein added to paclitaxel-stabilized microtubules (prepolymerized from 8 uM tubulins in Fig 5A, 5 uM in S7 Fig) in PEMT buffer (1 mM MgCl2, 1 mM EGTA, 100 mM PIPES, 20 uM taxol, pH 6.9); 25 C 30 min; 100,000g 30 min; SDS-PAGE, Coomassie.
Chain of tubulins (tubulin dimers; paclitaxel-stabilized microtubules) (P02550 whole entry, chain 1 of 2): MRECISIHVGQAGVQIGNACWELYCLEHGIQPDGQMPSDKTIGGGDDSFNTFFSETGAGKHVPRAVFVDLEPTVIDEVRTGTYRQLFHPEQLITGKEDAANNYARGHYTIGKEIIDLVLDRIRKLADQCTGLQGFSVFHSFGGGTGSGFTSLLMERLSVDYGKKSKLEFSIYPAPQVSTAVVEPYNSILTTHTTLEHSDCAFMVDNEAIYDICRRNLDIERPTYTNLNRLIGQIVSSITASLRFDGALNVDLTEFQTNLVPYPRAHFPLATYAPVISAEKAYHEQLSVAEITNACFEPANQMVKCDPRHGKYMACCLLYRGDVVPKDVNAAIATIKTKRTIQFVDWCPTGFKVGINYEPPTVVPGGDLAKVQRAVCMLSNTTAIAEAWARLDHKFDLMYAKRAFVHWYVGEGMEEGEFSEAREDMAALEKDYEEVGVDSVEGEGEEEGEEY
Chain of tubulins (tubulin dimers; paclitaxel-stabilized microtubules) (P02554 whole entry, chain 2 of 2, further chain): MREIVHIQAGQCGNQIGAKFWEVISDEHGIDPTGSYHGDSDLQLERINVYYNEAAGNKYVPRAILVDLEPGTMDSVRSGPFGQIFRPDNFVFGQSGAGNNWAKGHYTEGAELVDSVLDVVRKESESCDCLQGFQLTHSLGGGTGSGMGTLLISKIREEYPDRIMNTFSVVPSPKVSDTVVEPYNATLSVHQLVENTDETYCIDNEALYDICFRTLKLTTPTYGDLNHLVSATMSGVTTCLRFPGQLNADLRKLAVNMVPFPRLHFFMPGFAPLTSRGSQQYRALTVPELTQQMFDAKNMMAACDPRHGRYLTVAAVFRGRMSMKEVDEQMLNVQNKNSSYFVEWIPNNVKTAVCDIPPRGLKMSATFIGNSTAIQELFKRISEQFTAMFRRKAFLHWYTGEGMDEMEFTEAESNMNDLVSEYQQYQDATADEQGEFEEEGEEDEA

“His-AUG8 (AUGMIN subunit 8) (natural protein)” came in with a stoichiometry N (M His-AUG8 per mole of tubulin dimers) of 0.22.
